Source: patent publication US20130273058A1
[ ]: non-standard residue; d: D form. The star is where a group is joined. Palmitoyl = CCCCCCCCCCCCCCCC(=O)*

Biological target: GFP-tagged beta-catenin (UniProt P35222)
Assay: microscale thermophoresis (Monolith NT.115); lysate of HEK293 cells with GFP-beta-catenin mixed with increasing CT-HC-5 in the presence of bicelles; Hill fit

GFP-tagged beta-catenin, sequence (P35222 whole entry): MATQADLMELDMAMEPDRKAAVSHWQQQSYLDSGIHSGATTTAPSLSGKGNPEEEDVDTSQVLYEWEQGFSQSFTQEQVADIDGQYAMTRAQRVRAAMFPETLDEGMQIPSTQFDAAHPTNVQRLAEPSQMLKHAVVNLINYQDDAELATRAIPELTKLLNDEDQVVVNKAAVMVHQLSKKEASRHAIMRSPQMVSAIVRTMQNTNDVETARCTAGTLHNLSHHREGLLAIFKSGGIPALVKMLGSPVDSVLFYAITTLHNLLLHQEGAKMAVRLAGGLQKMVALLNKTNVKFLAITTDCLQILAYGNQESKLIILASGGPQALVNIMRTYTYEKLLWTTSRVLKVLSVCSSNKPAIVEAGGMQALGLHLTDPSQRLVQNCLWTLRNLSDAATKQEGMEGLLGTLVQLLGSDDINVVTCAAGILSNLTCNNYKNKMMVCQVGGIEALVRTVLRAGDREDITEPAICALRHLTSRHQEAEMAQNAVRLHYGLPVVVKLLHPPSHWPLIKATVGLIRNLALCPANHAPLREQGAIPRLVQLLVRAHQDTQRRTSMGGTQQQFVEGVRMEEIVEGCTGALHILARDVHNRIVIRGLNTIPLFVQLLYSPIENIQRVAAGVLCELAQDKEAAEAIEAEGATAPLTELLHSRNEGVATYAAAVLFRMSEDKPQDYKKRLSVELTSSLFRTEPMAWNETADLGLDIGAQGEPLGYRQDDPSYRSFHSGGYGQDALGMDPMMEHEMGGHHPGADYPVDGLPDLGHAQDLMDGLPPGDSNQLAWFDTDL

Kd: 2700 nM
B1: CT-HC-5 (peptide)
peptide: Palmitoyl-[dT][dR][dF][dL][dS][dS][dT][dL][dE][dV][dS][dL][dR][dK][dK]-NH2
SMILES: CCCCCCCCCCCCCCCC(=O)N[C@@H](C(=O)N[C@H](CCCNC(=N)N)C(=O)N[C@H](Cc1ccccc1)C(=O)N[C@H](CC(C)C)C(=O)N[C@H](CO)C(=O)N[C@H](CO)C(=O)N[C@@H](C(=O)N[C@H](CC(C)C)C(=O)N[C@H](CCC(=O)O)C(=O)N[C@@H](C(=O)N[C@H](CO)C(=O)N[C@H](CC(C)C)C(=O)N[C@H](CCCNC(=N)N)C(=O)N[C@H](CCCCN)C(=O)N[C@H](CCCCN)C(N)=O)C(C)C)[C@H](C)O)[C@H](C)O
